Experimental data taken from IntAct's records for PubMed 17974954.

B1: Tyrosine-protein phosphatase non-receptor type 1 (Homo sapiens), P18031 (parent)
chain: MEMEKEFEQIDKSGSWAAIYQDIRHEASDFPCRVAKLPKNKNRNRYRDVSPFDHSRIKLHQEDNDYINASLIKMEEAQRSYILTQGPLPNTCGHFWEMVWEQKSRGVVMLNRVMEKGSLKCAQYWPQKEEKEMIFEDTNLKLTLISEDIKSYYTVRQLELENLTTQETREILHFHYTTWPDFGVPESPASFLNFLFKVRESGSLSPEHGPVVVHCSAGIGRSGTFCLADTCLLLMDKRKDPSSVDIKKVLLEMRKFRMGLIQTADQLRFSYLAVIEGAKFIMGDSSVQDQWKELSHEDLEPPPEHIPPPPRPPKRILEPHNGKCREFFPNHQWVKEETQEDKDCPIKEEKGSPLNAAPYGIESMSQDTEVRSRVVGGSLRGAQAASPAKGEPSLPEKDEDHALSYWKPFLVNMCVATVLTAGAYLCYRFLFNSNT

Variants of: B1
Details: with src_human SRC

Variant	effect of a mutation on the interaction
C215S	disrupting interaction
